Target: SNA I lectin from Sambucus nigra (Sambucus nigra)
Assay: electrochemical impedance spectroscopy

Sequence of SNA I lectin from Sambucus nigra (Sambucus nigra) (Q41358 29-289 limits assumed, chain 1 of 2): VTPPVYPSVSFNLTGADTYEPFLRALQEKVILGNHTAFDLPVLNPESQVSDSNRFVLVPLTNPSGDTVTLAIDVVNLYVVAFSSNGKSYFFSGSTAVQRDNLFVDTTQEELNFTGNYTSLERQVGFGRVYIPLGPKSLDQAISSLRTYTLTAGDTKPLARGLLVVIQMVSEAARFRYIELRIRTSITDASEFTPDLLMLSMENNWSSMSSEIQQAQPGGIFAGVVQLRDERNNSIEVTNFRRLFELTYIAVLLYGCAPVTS
Sequence of SNA I lectin from Sambucus nigra (Sambucus nigra) (Q41358 309-570 limits assumed, chain 2 of 2): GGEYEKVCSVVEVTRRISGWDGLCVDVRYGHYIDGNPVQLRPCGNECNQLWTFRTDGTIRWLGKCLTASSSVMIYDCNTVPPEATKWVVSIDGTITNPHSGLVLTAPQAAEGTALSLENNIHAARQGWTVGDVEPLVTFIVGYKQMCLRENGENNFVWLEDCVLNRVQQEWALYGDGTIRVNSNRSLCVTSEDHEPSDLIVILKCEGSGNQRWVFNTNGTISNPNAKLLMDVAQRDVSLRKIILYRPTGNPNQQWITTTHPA

B1: fetuin (natural protein)
chain: IPLDPVAGYKEPACDDPDTEQAALAAVDYINKHLPRGYKHTLNQIDSVKVWPRRPTGEVYDIEIDTLETTCHVLDPTPLANCSVRQQTQHAVEGDCDIHVLKQDGQFSVLFTKCDSSPDSAEDVRKLCPDCPLLAPLNDSRVVHAVEVALATFNAESNGSYLQLVEISRAQFVPLPVSVSVEFAVAATDCIAKEVVDPTKCNLLAEKQYGFCKGSVIQKALGGEDVRVTCTLFQTQPVIPQPQPDGAEAEAPSAVPDAAGPTPSAAGPPVASVVVGPSVVAVPLPLHRAHYDLRHTFSGVASVESSSGEAFHVGKTPIVGQPSIPGGPVRLCPGRIRYFKI
specific sensitivity (OxASF subtracted): 259 Ω decade^-1
